Laboratory results published in US10184137B2, “Method of producing isoprene monomer” (AJINOMOTO CO., INC., priority 2014, dated 2019).
“And” between values parts separate entries of the source, which are not always exact repeats. Equal entries are not always repeated.

Experiments:
Format in all cases: biochemical
[1] = tested on: mevalonate kinase; assay: Expression analysis and activity confirmation of His-tagged mevalonate kinases from pET-21a(+) and pET-28b(+); details: His-spinTrap eluate after dialysis, 10 μl enzyme solution
Procedure: Each obtained plasmid was used for transformation of E. coli BL21(DE3). […] When OD600 reached approximately 0.5, IPTG was added to the solution to final concentration of 1 mM. It was then cultured overnight at 20° C. Harvested cells were suspended in the buffer solution consisting of 50 mM sodium phosphate, 0.3 M NaCl and 20 mM Imidazol. Then the cells were disrupted with an ultrasonic disruptor (TOMY: UD-201, output level=3.5). After centrifugation (20,000×g, 20 min), disrupted cells were adsorbed to His-spinTrap (GE Healthcare). After washing with the same buffer solution, protein was eluted with the buffer solution consisting of 50 mM sodium phosphate, 0.3 M NaCl and 0.5 M imidazole (pH7.5). Eluate was dialyzed overnight at 4° C. with the external solution composed of 20 mM Tris-HCl (pH7.5) and 50 mM NaCl. Then, enzyme activity of each eluate in the internal dialysis solution was measured.
Activity of the internal dialysate (about 0.2 ml each) was measured with the 10 μl of enzyme solution (Table 8). Enzyme expression level was compared on activity basis between pET-21a(+) and pET-28b(+). […] It is inferred that expression level is higher in pET-28b(+). Therefore, purified enzyme expressed in pET-28b(+) was used in the further examinations.
Values were presented by decrease in absorbance per unit time per 10 μl in the enzyme reaction measurement system (dABS/min/10 μl).
(§1) Decrease in absorbance at 340 nm at 30° C. was measured to determine the enzyme activity. JASCO Corporation's spectrophotometer (V-650) was used in this study. Millimolar extinction coefficient of NADH used in this study was 6.22 mM^−1 cm^−1. […] Km value was calculated by Lineweaver-Burk plot.

[2] = tested on: mevalonate kinase; assay: Measurement of activity and Km value of purified mevalonate kinase (PK/LDH coupled, 340 nm); details: for dABS/min at ATP 0.04 mM / dABS/min at ATP 0.2 mM / dABS/min at ATP 1 mM / dABS/min at ATP 5 mM: potassium mevalonate 5 mM; for dABS/min at ATP 0.04 mM / dABS/min at ATP 0.2 mM / dABS/min at ATP 1 mM / dABS/min at mev 0.01 mM / dABS/min at mev 0.04 mM / dABS/min at mev 0.2 mM / dABS/min at ATP 5 mM: 10 μl enzyme in 1 ml, replicate values; for dABS/min at mev 0.01 mM: potassium mevalonate 0.01 mM; for dABS/min at mev 0.01 mM / dABS/min at mev 0.04 mM / dABS/min at mev 0.2 mM / dABS/min at ATP 5 mM: ATP 5 mM; for dABS/min at mev 0.04 mM: potassium mevalonate 0.04 mM; for dABS/min at mev 0.2 mM: potassium mevalonate 0.2 mM
Procedure: Each obtained plasmid was used for transformation of E. coli BL21(DE3). […] When OD600 reached approximately 0.5, 0.1 mM IPTG (for cva, mma, nmr, and sce) or 1 mM (for mcl and mpd) of IPTG was added, and then the mixture was kept at 20° C. overnight to induce the target protein. Harvested cells were suspended in buffer solution A (50 mM sodium phosphate, 0.3 M NaCl and 20 mM Imidazol), and then the cells were disrupted with an ultrasonic disruptor (TOMY: UD-201). […] After centrifugation (28,000×g, 30 min), the supernatant was adsorbed onto His-Trap HP (GE Healthcare) to elute the target protein by linear concentration gradient of Imidazol (final concentration 0.5 M). Obtained protein was dialyzed by using an external solution composed of 20 mM Tris-HCl (pH 8.0) containing 1 mM DTT and 50 mM NaCl. Dialyzed protein was designated as purified enzyme. Protein quantity was measured with Bio-RAD protein assay kit and BSA standard condition.
as §1
Measured activity of each enzyme (JABS/min) was presented on Table 9 for the calculation of apparent Km value (Km app.) of each enzyme. Table 10 presents Km app., Vmax, molecular weight of the enzyme protein, protein concentration in the enzyme solution and calculated kcat.
Activity was indicated by dABS/min when 10 μl of each enzyme was added to 1 ml of reaction solution.

[3] = tested on: mevalonate kinase; assay: Inhibition of each mevalonate kinase by DMAPP, GPP, FPP or DPM
Procedure: Since GPP and FPP solutions contain methanol, methanol which was needed to keep the same methanol level at the addition to the reaction system was added to the reaction solution, which was designated as control.
Respective effect of the added 5 mM DMAPP, 0.1 mM GPP, and 0.1 mM FPP on the activity of each enzyme was measured. […] Contrarily, mcl-derived enzyme was activated by 5 mM DMAPP and its activity increased by 20% from that of the control.
Activity when 10 μl of each enzyme was added to 1 ml of the reaction system was represented by dABS/min
Effect of 1 mM diphosphomevalonate (DPM) on each enzyme was also studied.

[4] = tested on: mevalonate kinase; assay: Examination of product inhibition on each mevalonate kinase (absorbance at 386 nm, PMK addition); details: 1 mM mevalonate as substrate; in words
Procedure: When decrease in absorbance stopped, purified PMK was added to measure further decrease in absorbance at 386 nm.
FIG. 18 presents the SDS-PAGE profile of the purified PMK. […] Then, absorbance decreased further and finally absorbance at 386 nm decreased to 0.3 in all reaction systems. Therefore, it is inferred that mevalonate is converted into diphosphomevalonate via phosphomevalonate by adding PMK to each MVK.

[5] = Table 11 control without terpenyl diphosphate (methanol added)

| course of decrease in absorbance at 386 nm until PMK addition [4] | Molecule | enzyme activity, pET21 system (C terminal Tag) [1] | enzyme activity, pET28 system (N terminal Tag) [1] | dABS/min at ATP 0.04 mM [2] | dABS/min at ATP 0.2 mM [2] | dABS/min at ATP 1 mM [2] | dABS/min at mev 0.01 mM [2] | dABS/min at mev 0.04 mM [2] | dABS/min at mev 0.2 mM [2] | enzyme activity, Control [3, 5] | enzyme activity, Control ([3]; Table 12 control without DPM) | dABS/min at ATP 5 mM [2] | affinity to mevalonate and ATP compared with the other enzymes ([2]; in words) |
| --- | --- | --- | --- | --- | --- | --- | --- | --- | --- | --- | --- | --- | --- |
| almost linear decrease in absorbance | mma: known mevalonate kinase derived from Methanosarcina mazei (SEQ ID NO:12), His-tagged purified enzyme (protein, listed as Methanosarcina mazei, His-tag) MVSCSAPGKIYLFGEHAVVYGETAIACAVELRTRVRAELNDSITIQSQIGRTGLDFEKHPYVSAVIEKMRKSIPINGVFLTVDSDIPVGSGLGSSAAVTIASIGALNELFGFGLSLQEIAKLGHEIEIKVQGAASPTDTYVSTFGGVVTIPERRKLKTPDCGIVIGDTGVFSSTKELVANVRQLRESYPDLIEPLMTSIGKISRIGEQLVLSGDYASIGRLMNVNQGLLDALGVNILELSQLIYSARAAGAFGAKITGAGGGGCMVALTAPEKCNQVAEAVAGAGGKVTITKPTEQGLKVD | 0.225 dABS/min/10 μl | 0.231 dABS/min/10 μl | 0.01326 dABS/min and 0.01358 dABS/min and 0.01398 dABS/min | 0.05835 dABS/min and 0.05848 dABS/min and 0.05859 dABS/min | 0.1533 dABS/min (2×) and 0.1528 dABS/min | 0.02921 dABS/min and 0.02805 dABS/min and 0.02788 dABS/min | 0.08012 dABS/min and 0.08006 dABS/min and 0.08009 dABS/min | 0.1761 dABS/min and 0.1758 dABS/min and 0.176 dABS/min | 0.21 dABS/min | 0.1604 dABS/min |  |  |
| almost linear decrease in absorbance | mpd: mevalonate kinase derived from Methanocella paludicola (SEQ ID NO:1), His-tagged purified enzyme (protein, listed as Methanocella paludicola, His-tag) MTMCSAPGKVFLFGEHAVVYGKRAIACAIDLRTTVEVSRKSRGVHIHSAFKDEPDKNLYIKTAVKRMQKCADIRNVNIAVSSRIPVASGLGSSAAVTVATIGALNEEFSAGLSKKDIAYMAYQTELEVQGAASPTDTFVSTMGGTVVVPDMRTLPPITCGIVVGHTGISKSTSRMVSRVRTLKEKYPDVIDGIMDSIGDISARGEDLIKQNDYRSIGELMNVNQGLLDALGITIPELSLQIYAARQHGAYGAKITGAGGGGCMVAICDDKNCKEIATAIGRSYGDSFISKPTAEGIFIQ | 0.011 dABS/min/10 μl | 0.031 dABS/min/10 μl | 0.01369 dABS/min and 0.01352 dABS/min and 0.01403 dABS/min | 0.03262 dABS/min and 0.03252 dABS/min and 0.0325 dABS/min | 0.04713 dABS/min and 0.04701 dABS/min and 0.04689 dABS/min | 0.06401 dABS/min and 0.0638 dABS/min and 0.06377 dABS/min | 0.1211 dABS/min and 0.1213 dABS/min and 0.121 dABS/min | 0.1506 dABS/min (2×) and 0.1505 dABS/min | 0.1573 dABS/min | 0.148 dABS/min | 0.05141 dABS/min (2×) and 0.05155 dABS/min | higher affinity to mevalonate and ATP than the other enzymes |
| almost linear decrease in absorbance | sce: mevalonate kinase of Saccharomyces cerevisiae encoded by the ERG12 gene, His-tagged purified enzyme (protein, UniProt P07277 1-443, looked up, His-tag) Mevalonate kinase: MSLPFLTSAPGKVIIFGEHSAVYNKPAVAASVSALRTYLLISESSAPDTIELDFPDISFNHKWSINDFNAITEDQVNSQKLAKAQQATDGLSQELVSLLDPLLAQLSESFHYHAAFCFLYMFVCLCPHAKNIKFSLKSTLPIGAGLGSSASISVSLALAMAYLGGLIGSNDLEKLSENDKHIVNQWAFIGEKCIHGTPSGIDNAVATYGNALLFEKDSHNGTINTNNFKFLDDFPAIPMILTYTRIPRSTKDLVARVRVLVTEKFPEVMKPILDAMGECALQGLEIMTKLSKCKGTDDEAVETNNELYEQLLELIRINHGLLVSIGVSHPGLELIKNLSDDLRIGSTKLTGAGGGGCSLTLLRRDITQEQIDSFKKKLQDDFSYETFETDLGGTGCCLLSAKNLNKDLKIKSLVFQLFENKTTTKQQIDDLLLPGNTNLPWTS | 0.001 dABS/min/10 μl | 0.127 dABS/min/10 μl |  | 0.03041 dABS/min and 0.0304 dABS/min and 0.03229 dABS/min | 0.07032 dABS/min and 0.07022 dABS/min and 0.0702 dABS/min | 0.01813 dABS/min and 0.01981 dABS/min and 0.01853 dABS/min | 0.05257 dABS/min and 0.05264 dABS/min and 0.05265 dABS/min | 0.11 dABS/min and 0.1103 dABS/min (2×) | 0.1365 dABS/min | 0.1028 dABS/min | 0.09422 dABS/min and 0.0941 dABS/min and 0.09418 dABS/min |  |
| almost linear decrease in absorbance | cva: mevalonate kinase derived from Corynebacterium variabile (SEQ ID NO:3), His-tagged purified enzyme (protein, His-tag; Corynebacterium variabile) MAPHVGHGQTVAKIILFGEHSVVYGHPAIAMPLRTLRMIARVEPTDGPGTLSGLGWTGPITEAPARFSSIVKAAEVASDFAGHPGAGLNISTESEFPPERGLGSSAAAAGAVIRAVLDAFDTPATPRELFDLTQEAETVAHGRPSGLDAVATSAEAPVHFQAGQATDLEFSPDAWIVIADSGVEGSTRETVGHVRGRFEAEPDIITALLNRLGEITDEVVVDLRTGDVQGMGARMTEAHGILGQLGVSNTQLDALVTASLGAGALGAKLTGGGRGGCVIALAATEEDAENVEKALVDAGARGTWVHAPATGQMAGEVMQ | 0.019 dABS/min/10 μl | 0.211 dABS/min/10 μl |  | 0.005822 dABS/min and 0.005967 dABS/min and 0.005722 dABS/min | 0.02063 dABS/min and 0.02015 dABS/min and 0.02051 dABS/min | 0.01264 dABS/min and 0.01267 dABS/min and 0.01265 dABS/min | 0.03701 dABS/min and 0.03703 dABS/min and 0.03697 dABS/min | 0.0771 dABS/min and 0.07712 dABS/min and 0.07711 dABS/min | 0.08338 dABS/min | 0.07328 dABS/min | 0.03739 dABS/min and 0.03744 dABS/min and 0.03741 dABS/min |  |
